The target of the test is GAL4-HSF2N96C238 (HSF2 deletion mutant fused with the yeast GAL4-BD derived from pM) (yeast; human) (UniProt P04386). The experiment in a line: cell-based or functional assay.

For the substance “VP16-HSF2BP (HSF2BP fused with the VP16 transcriptional activation domain derived from pVP16) (from UniProt O75031 1-334)”, the luciferase reporter activity in two-hybrid assay in K562 cells (induction fold against control VP16) was 11 fold.

The record behind these values is patent US6485936.
